Numbering of substitutions follows the chain as printed. In names and notes the source's numbering stands.

Experiment [1] deals with T1, Prostate Specific Antigen (UniProt P07288 25-261).
T1 construct: also called PSA
Description: column 'Antigen recognized by antibody'.

In experiment [2] the target is T1, Prostate Specific Antigen. In words: BIAcore. A general note: In SPR one partner is held on a chip, and binding of the other changes the refractive index at the surface.
Experiment [3] has as its target T2, human serum albumin (human, UniProt P02768 25-609).
T2 construct: also called HSA
In words: column 'Antigen recognized by antibody'.

For experiment [4], the target named is T3, Carcino Embryonic Antigen (UniProt P06731 35-685, limits assumed).
T3 construct: also called CEA; CEA tumor antigen
T3 sequence (looked up): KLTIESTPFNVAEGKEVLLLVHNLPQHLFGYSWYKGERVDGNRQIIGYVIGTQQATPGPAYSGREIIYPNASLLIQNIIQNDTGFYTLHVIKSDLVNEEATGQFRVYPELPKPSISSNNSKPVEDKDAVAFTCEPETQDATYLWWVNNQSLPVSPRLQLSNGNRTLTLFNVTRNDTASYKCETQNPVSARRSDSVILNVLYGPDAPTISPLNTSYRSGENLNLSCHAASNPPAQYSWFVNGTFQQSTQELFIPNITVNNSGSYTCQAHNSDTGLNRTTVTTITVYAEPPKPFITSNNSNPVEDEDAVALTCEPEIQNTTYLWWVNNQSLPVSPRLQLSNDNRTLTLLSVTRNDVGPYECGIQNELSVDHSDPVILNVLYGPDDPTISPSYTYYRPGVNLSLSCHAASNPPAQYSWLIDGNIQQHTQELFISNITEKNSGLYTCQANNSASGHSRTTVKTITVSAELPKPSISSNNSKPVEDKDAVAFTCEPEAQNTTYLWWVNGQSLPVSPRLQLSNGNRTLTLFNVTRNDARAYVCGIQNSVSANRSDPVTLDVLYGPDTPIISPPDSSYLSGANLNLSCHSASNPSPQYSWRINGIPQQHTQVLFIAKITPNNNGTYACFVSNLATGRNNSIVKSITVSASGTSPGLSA
Description: column 'Antigen recognized by antibody'.

Experiment [5] concerns the target β-lactamase. In words: BIAcore.
Experiment [6] deals with T4, TEM1 (UniProt P62593 24-286).
T4 construct: also called β-lactamase; b-lactamase
In words: column 'Antigen recognized by antibody'.

Experiment [7] concerns the target T4, TEM1. Description: IMAC co-purification, Coomassie stained PAGE.
The target in experiment [8] is T3, Carcino Embryonic Antigen. In words: ELISA on coated CEA.
Description: A microtiter plate (Maxisorp, NUNC) was coated overnight at 4° C. with CEA (Scripps) at a concentration of 1 μg/ml (in PBS), and blocked for two hours at room temperature (RT) with 300 μl 1% casein in PBS. The plates were washed three times with PBS-tween. […] Plates were washed six times with PBS-tween, after which binding of VHH was detected by incubation with mouse anti-Histidine mAB (Serotec; 1:1000 diluted; 100 μl/well) for 1 hour at RT followed by anti-mouse-alkaline phosphatase conjugate (Sigma, 1:2000 diluted), also for 1 hour at RT. Staining was performed with the substrate PNPP (p-nitrophenyl-phosphate, 2 mg/ml in 1M diethanolamine, 1 mM Mg₂SO₄, pH9.8) and the signals were measured after 30 minutes at 405 nm.
The target of experiment [9] is humanized mouse mAb to CD40. Description: BIAcore.

T2 sequence (P02768 25-609 limits assumed): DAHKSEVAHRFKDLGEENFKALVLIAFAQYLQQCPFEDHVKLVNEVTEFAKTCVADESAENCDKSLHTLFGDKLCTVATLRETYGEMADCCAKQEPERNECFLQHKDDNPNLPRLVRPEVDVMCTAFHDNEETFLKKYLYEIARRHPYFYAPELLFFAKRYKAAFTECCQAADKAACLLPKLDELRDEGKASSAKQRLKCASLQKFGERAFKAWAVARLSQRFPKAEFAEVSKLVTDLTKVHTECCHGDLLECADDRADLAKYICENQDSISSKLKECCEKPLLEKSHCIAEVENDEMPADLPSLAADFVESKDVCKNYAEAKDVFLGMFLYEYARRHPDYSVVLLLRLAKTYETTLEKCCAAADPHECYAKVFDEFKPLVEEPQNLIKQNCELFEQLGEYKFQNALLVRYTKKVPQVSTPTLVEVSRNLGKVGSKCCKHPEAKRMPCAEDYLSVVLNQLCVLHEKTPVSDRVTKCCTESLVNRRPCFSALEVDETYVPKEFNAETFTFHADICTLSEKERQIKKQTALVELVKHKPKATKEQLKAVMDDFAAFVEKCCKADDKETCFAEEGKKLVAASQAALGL
T1 sequence (P07288 25-261 limits assumed): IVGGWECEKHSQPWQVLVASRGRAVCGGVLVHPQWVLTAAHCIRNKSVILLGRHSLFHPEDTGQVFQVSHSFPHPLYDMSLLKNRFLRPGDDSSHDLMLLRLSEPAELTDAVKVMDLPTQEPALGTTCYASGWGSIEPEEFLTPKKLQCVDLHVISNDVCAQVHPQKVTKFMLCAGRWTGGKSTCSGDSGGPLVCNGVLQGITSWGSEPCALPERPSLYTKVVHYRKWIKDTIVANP
T4 sequence (P62593 24-286 limits assumed): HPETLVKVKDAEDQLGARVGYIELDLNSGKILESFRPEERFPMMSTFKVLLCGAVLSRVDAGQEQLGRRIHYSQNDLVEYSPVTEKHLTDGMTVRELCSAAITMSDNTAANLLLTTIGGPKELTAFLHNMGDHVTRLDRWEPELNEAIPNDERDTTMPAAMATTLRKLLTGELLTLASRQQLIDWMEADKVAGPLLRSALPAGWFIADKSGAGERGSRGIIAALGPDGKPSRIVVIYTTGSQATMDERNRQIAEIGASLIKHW

B1: N3-A (VHH)
VHH: DVQLQESGGSLVQPGGSLRLSCAASGFTFSAYYMIWVRQAPGKGLEWVSGISANGRDTLYEDSVEGRFAISRDNAKNTLYLQMNSLRSEDTALYYCVIGALITGRRGQGTQVTVSS
notes: Dromedary single domain; purified on Ni-NTA
As for B1, the binding result in [1] was “binds”.

B2: C11-B (VHH)
VHH: B1 VHH with S10G, T28I, A31N, Y32T, I35T, N54D, E61A, I98T, I102M
notes: as for B1
B2 displayed a Kd in experiment [2] of 2.6 nM.

B3: ALB-2 (VHH)
VHH: QVQLQESGGGLVQPGGSLRLTCTASGFAFSNFGMSWVRQPPGKGLEWVSAISADSSTKNYADSVKGRFTISRDNTKKMLYLEMNSLKPEDTAVYHCVIGRGSASSQGTQVTVSS
notes: Llama single domain; purified on Ni-NTA
As for B3, the binding result in experiment [3] was “binds”.

B4: ALB-5 (VHH)
VHH: B3 VHH with N31S, T75D, S85K, A103P
notes: as for B3
As to B4, in experiment [3], the binding result was “binds”.

B5: CEA1 (VHH)
VHH: QVQLVESGGGLVQPGGSLRLSCAASGFTFSKYDMSWVRQAPGKGLEWVSRISSGGGSTYYADSVKGRFTISRDNAKNTLYLQMNSLKPEDTAVYYCATPTYSSDYRGLPPGQGTQVTVSS
notes: as for B1
As for B5, the binding result in experiment [4] is recorded as “binds”.

B6: cAbBLA01 (VHH)
VHH: QLQLVESGGGSVQSGGSLRLSCKVSGYIGSTNCMGWFRQAPGKEREGVASLFTGSGNTYYGDSVKGRFTISEDNAKNTVSLQMNSLKPEDTAMYYCASSSNVGSDESCGRKNTRQFVYTYQGQGTQVTVSS
For B6, in experiment [5], the Kd was less than 1 nM.

B7: anti-β-lactamase VHH TEM04 (wild type) (VHH)
VHH: QVQLVESGGGLVQAGGSLRLSCAASGFTFSSAWMTWVRQAPGKGLEWVTSIATDGSTDYADSVKGRFTISRDNAKNTLYLQLNSLNTEDTAVYYCAKDRWGYVVRGQGTQVTVSS
notes: also called cAbTEM04
Consider B7, for which, in [6], the binding result is on record as “binds”.

B8: anti-β-lactamase VHH TEM04 R103W mutant (VHH)
VHH: B7 VHH with R105W
notes: also called VHH TEM04 mutant; TEM04 W (mutant)
In the case of B8, in experiment [7], the binding result is listed as “binds”.

B9: N15-B (VHH)
VHH: DVQLQESGGGSVQAGGSLRLACAATAYTYDSNVLGWFRQAPGKEHEGVAVIYTGTRTTYYADSVKGRFTISQDNAKNTVYLQMNSLKPGDTAMYFCAANVRLGGVWSFDYRGQGTQVTVSS
notes: as for B1
With B9, the binding result in [1] is listed as “binds”.

B10: C9-B (VHH)
VHH: DVQLQESGGGLVQPGGSLRLSCAASGFTFSNHYMTWVRQAPGKGLEWVSVISNDGRYTDYADSVKGRFTISRDNAKNTLYLQMNSLKTEDTALYTCVRGYYLTNLPAGDRGQGTQVTVSS
notes: as for B1
The molecule B10 gave a Kd in experiment [2] of 3.9 nM.

B11: C24-A (VHH)
VHH: B10 VHH with T28A, S30T, N31P, H32S, T35S
notes: as for B1
On to B11, for which the binding result in experiment [1] is recorded as “binds”.

B12: N8-B (VHH)
VHH: DVQLQESGGGLVQPGGSLRLSCAASGFLFSDTYMTWARQAPGKGLEWLGGISKDGSGTLYEDSVEGRFTISRDNAKNTLYLQMNSLKSEDTALYYCSTGALLPTRPQGQGTQVTVSS
notes: as for B1
In the case of B12, the Kd in experiment [2] is 1.6 nM.

B13: C12-A (VHH)
VHH: B12 VHH with Q13R, D31G, G49C, S52N, E61A, I70C
notes: as for B1
In turn, B13 registered a Kd in experiment [2] of 2.6 nM.

B14: ALB-4 (VHH)
VHH: QVQLQESGGGLVQPGNSLRLSCAASGFSFRSFGMSWVRQAPGKGPEWVSSINSSGDDTRYTDSVKGRFTISRDNAKSTLYLQMNSLKPEDTAVYYCTIGSSISRSSQGTQVTVSS
notes: as for B3
With B14, the binding result in experiment [3] is on record as “binds”.

B15: ALB-1 (VHH)
VHH: QVQLQESGGGLVQPGGSLRLSCAASGFAFSSFPMTWVRQAPGKGLEWVSGILEGGGSPAYADSVKGRFTISRDDAKNTLYLQMNSLKPEDTAVYYCAKGYVYAREGARSQGTQVTVSS
notes: as for B3
As to B15, in [3], the binding result is “binds”.

B16: ALB-3 (VHH)
VHH: QVQLQESGGGLVQPGNSLRLSCAASGFAFGNFGMSWVRQAPGKEPEWVSSIDSIGSDTLYADFVKGRFTISRDNAKSTLYLQMNSLKPEDTAVYYCTIGGSLSRSSQGTQVTVSS
notes: as for B3
B16: the binding result in [3] is on record as “binds”.

B17: anti-carcinoembryonic antigen VHH CEA71 (wild type) (VHH)
VHH: QVQLVESGGGLVQPGGSLRLSCAASGFTFSSSYMSWVRQAPGKGLEWVSGINTDGSFTRYADSVKGRFTISRDNAKNTLYLQMNSLKSEDTALYYCAVGGGLGYGPRGQGTLVTVSS
notes: also called CEA71 WT; CEA wild type VHH
Take B17: in experiment [8], the “fold lower concentration at which it binds, against the R103W mutant” value is roughly 10 fold.

B18: CEA72 (VHH)
VHH: B17 VHH with G26E, L112Q
notes: as for B1
As to B18, in experiment [4], the binding result is “binds”.

B19: N13-A (VHH)
VHH: DVQLQESGGGSVQPGGSLRLSCAASGFTFKDASMNWVRQAPGKGLEWVSAINGGGTVTDYADPMEGRFTISRDNAKNTLYLQMNSLNFEDTALYYCATGWLFRANNYRGQGTQVTVSS
notes: as for B1
Turning to B19, the binding result in experiment [1] was “binds”.

B20: CD40-1 (VHH)
VHH: QVQLVESGGGLVQPGGSLRLSCAASGFAFSRYSMYWVRQAPGKGLEWVSEIYPDGNGWYTSSVKGRFTISRDNDKNMLYLQMNSLKPDDTAVYYCALSRSGQGRGQGTRVTVSS
With B20, in [9], the Kd came out at 2 nM.

B21: C1-B (VHH)
VHH: DVQLQESGGGLVQPGGSLRLSCAASGFTFSTSYMTWARQAPGKGLEWVSGINRDGNNPLYADSVEGRFTVSRDNAKNTLYLQMNSLKSEDTALYYCVAGALVAGARGQGTQVTVSS
notes: as for B1
Consider B21, for which binding in experiment [2] was characterised by a dissociation constant (Kd) of 0.8 nM.

Usually Kd stands for the constant that tells how readily two partners part at equilibrium. A higher Kd goes with a looser complex.

The values are drawn from patent publication US20120172578A1 (VLAAMS INTERUNIVERSITAIR INSTITUUT VOOR BIOTECHNOLOGIE, published 2012).
